± gives the uncertainty stated by the source.

Data on 26 sequences can be found in the supplement of paper PMC9732359.

This series can be described thus: protein stability index of a GFP-peptide fusion (yeast GPS) (PSI 1-4); higher = more stable; sorted into four equal gates, so the index is relative within each strain. The procedure, abridged:
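The protein stability index combines read frequencies across sorting gates, each weighted by its gate number and then summed. To obtain those frequencies, a pooled yeast library of GFP fusions to tiled 17-residue yeast protein peptides, on a plasmid also expressing Cherry, was grown to mid-log phase in leucine-free medium. The cells were sorted into four equal gates by GFP/Cherry ratio before plasmid amplification by PCR and Illumina sequencing.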

For the sequence ENIIQMEMIENRTMDGK [FAS1], the protein stability index runs as follows: (doa10∆) 2.78 ± 0.084; (pdr5∆) 2.81 ± 0.11; (san1∆) 2.81 ± 0.12; (ubr1∆) 3.02 ± 0.069.
The matching figures for ENLPGLSISVAAEPMDS [SNU114]: 2.7 ± 0.062, 2.91 ± 0.079, 2.83 ± 0.074 and 3.17 ± 0.095.
The like results for ENPDLSTKKKILGIHTS [RPT2] were, in that order, 2.8 ± 0.14, 3.02 ± 0.24, 2.98 ± 0.087 and 2.9 ± 0.15.
In the case of ENPTPEKGNAKMIDFAT [SIR3], the protein stability index is 3.1 ± 0.11 (doa10∆), 2.99 ± 0.092 (pdr5∆), 3.32 ± 0.072 (san1∆) and 3.03 ± 0.068 (ubr1∆).
The matching figures for ENSAVAAKEGLALSSNI [COR1]: 1.84 ± 0.065, 2.66 ± 0.064, 2.49 ± 0.084 and 2.17 ± 0.053.
In the case of EPENNTVIEGVKEESQP [SWI3], the protein stability index is, setting by setting: (doa10∆) 3.21 ± 0.095; (pdr5∆) 3.13 ± 0.092; (san1∆) 3.08 ± 0.059; (ubr1∆) 2.99 ± 0.081.
EPHAVSLAWSADGQTLF [ASC1] had a protein stability index (doa10∆) of 2.85 ± 0.12, a protein stability index (pdr5∆) of 3.06 ± 0.14 and a protein stability index (ubr1∆) of 2.79 ± 0.26.
On to EQFYTKDIIDPKLTSIF [RPN2], for which the protein stability index stood at 2.32 ± 0.11 (doa10∆), 2.92 ± 0.11 (pdr5∆), 2.36 ± 0.11 (san1∆) and 2.47 ± 0.09 (ubr1∆).
The like results for EQHHINNLKNSGNSANN [GAL11] were, in that order, 2.41 ± 0.14, 2.09 ± 0.088, 2.39 ± 0.1 and 2.32 ± 0.13.
The like results for EQKKTATEVTPQEPKHI [RPC19] were, in that order, 2.45 ± 0.054, 3.02 ± 0.054, 2.6 ± 0.072 and 2.54 ± 0.04.
For the sequence EQKLIDQHVINILWAIY [YCS4], the protein stability index (doa10∆) was determined as 1.87 ± 0.042, the protein stability index (pdr5∆) worked out at 2.28 ± 0.04, the protein stability index (san1∆) stood at 1.93 ± 0.053 and the protein stability index (ubr1∆) is 1.68 ± 0.035.
The like results for EQLSEEDAKLKTDLELL [RPN1] were, in that order, 3.13 ± 0.15, 3.25 ± 0.069, 3.25 ± 0.1 and 3 ± 0.13.
The matching figures for EQTCVKLLDSGCENPAD [SRP72]: 3.26 ± 0.066, 3.4 ± 0.085, 2.91 ± 0.092 and 3.46 ± 0.073.
The matching figures for EQVLSAAATFPIAQPAT [RPL13A]: 2.66 ± 0.059, 2.24 ± 0.057, 1.74 ± 0.084 and 2.54 ± 0.043.
On to ERLMSRPFGVALLIAGH [PUP2], for which the protein stability index (doa10∆) came out at 2.81 ± 0.28, the protein stability index (pdr5∆) turned out to be 3.08 ± 0.11, the protein stability index (san1∆) was determined as 2.74 ± 0.1 and the protein stability index (ubr1∆) amounted to 2.95 ± 0.081.
The like results for ERPPYILNSYGVLKPDI [SIR2] were, in that order, 2.83 ± 0.078, 3.12 ± 0.093, 3.15 ± 0.053 and 3.15 ± 0.061.
The like results for ESGIKPYFEQKIQETEL [RPT6] were, in that order, 2.93 ± 0.13, 3.24 ± 0.14, 2.64 ± 0.061 and 3.23 ± 0.094.
The like results for ESGSTPISISNAPTFNP [YAR002W/NUP60] were, in that order, 2.25 ± 0.067, 2.64 ± 0.061, 1.98 ± 0.077 and 2.63 ± 0.058.
With ESKLRDDLERLKKIRAH [RPS18A], the protein stability index worked out at 2.78 ± 0.13 (doa10∆), 1.98 ± 0.087 (pdr5∆), 1.5 ± 0.16 (san1∆) and 3.3 ± 0.048 (ubr1∆).
The matching figures for ESKLSLETLFNRWHSES [FAS2]: 3.26 ± 0.084, 3.24 ± 0.1, 3.1 ± 0.064 and 3.11 ± 0.065.
The matching figures for ESNVNDSDMLTKSHNTV [NUT1]: 3.08 ± 0.1, 3.25 ± 0.095, 3.28 ± 0.086 and 3.43 ± 0.1.
The like results for ESQLQMDRTSLRKQYSA [SMC3] were, in that order, 2.47 ± 0.08, 2.53 ± 0.096, 2.75 ± 0.067 and 2.86 ± 0.094.
Consider ESRKAFFLGYMINRLLL [RPB2], for which the protein stability index reads like this: (doa10∆) 1.17 ± 0.092; (pdr5∆) 1.17 ± 0.11; (san1∆) 1.12 ± 0.09; (ubr1∆) 1.09 ± 0.072.
Consider ESTSSTEEVEALLQRLK [MTW1], for which, where the note is “ubr1∆”, the protein stability index was 3.23 ± 0.19.
Take ESTTEATGNESQDATKV [YLR335W/NUP2]: the protein stability index is, setting by setting: (doa10∆) 3.04 ± 0.071; (pdr5∆) 3.23 ± 0.081; (san1∆) 3.12 ± 0.11; (ubr1∆) 3.21 ± 0.075.
Turning to ESVLPAARYDYAVAEQC [QCR2], the protein stability index was determined as 3.15 ± 0.11 (doa10∆), 3.25 ± 0.11 (pdr5∆), 2.97 ± 0.11 (san1∆) and 1.98 ± 0.06 (ubr1∆).
